US9447157B2, “Nitration shielding peptides and methods of use thereof” (Augusta University Research Institute, Inc., priority 2013, dated 2016)
“Also recorded” adds a separate entry of the source. No end group written: not given here. *: point of attachment. X1 = 3‑carboxy‑2,2,5,5‑tetramethyl‑3‑pyrrolin‑1‑yloxy, CC1(C)C=C(C(=O)*)C(C)(C)N1[O]

Experiments:
[1] = system: human lung microvascular endothelial cells (HLMVEC); experiment: Endothelial monolayer resistance (ECIS, TER) in LPS-challenged HLMVEC; assay type: cell-based; details: for Attenuation of LPS-mediated decrease in transendothelial resistance (TER) / barrier disruption: HLMVEC, LPS 1 EU/ml, MnTMPyP 25 μM, ETU 200 μM, 1400W 100 μM
Description: The electrical resistance of the endothelial cell monolayer was measured with the electrical cell impedance sensor (ECIS) technique. In this system, the cells are cultured on gold plated electrodes. The change in resistance across the monolayer is measured through an amplifier attached to the arrays. Each study was performed when the resistance reached a plateau. The data was normalized to the initial voltage and plotted as a normalized resistance.
To examine if protein nitration by peroxynitrite is a contributing factor in endothelial barrier disruption in response to LPS, transendothelial resistance (TER) was measured in HLMVEC in the presence or absence of the peroxynitrite scavenger, MnTmPyp. HLMVEC were challenged with LPS (1 EU/ml) in the presence or absence of the peroxynitrite scavenger, MnTMPyP (25 μM).
To evaluate the role played by NOS in the barrier dysfunction, HLMVEC were exposed to LPS in the presence or absence of ETU (a non-specific NOS inhibitor) or 1400W (to inhibit iNOS). HLMVEC were challenged with LPS (1 EU/ml) in the presence or absence of the general NOS inhibitor, ETU (200 μM) or the iNOS specific inhibitor, 1400W (100 μM). The LPS-mediated decrease in TER was attenuated in the presence of ETU, but not 1400W (FIG. 1B). The important role of eNOS was then confirmed using a siRNA approach. HLMVEC were transiently transfected with a siRNA against eNOS or a scrambled control siRNA. After 48 h, there was a significant knockdown of eNOS protein levels (50%), as determined by Western blotting. Reducing eNOS protein levels preserved HLMVEC barrier function when challenged with LPS (FIG. 1C).

Recombinant human PKG-Iα = target: T1, Recombinant human PKG-Iα (Homo sapiens, UniProt Q13976); experiment: PKG-Iα activity assay with SIN-1 and shielding peptide; assay type: biochemical
T1 sequence (Q13976 2-671): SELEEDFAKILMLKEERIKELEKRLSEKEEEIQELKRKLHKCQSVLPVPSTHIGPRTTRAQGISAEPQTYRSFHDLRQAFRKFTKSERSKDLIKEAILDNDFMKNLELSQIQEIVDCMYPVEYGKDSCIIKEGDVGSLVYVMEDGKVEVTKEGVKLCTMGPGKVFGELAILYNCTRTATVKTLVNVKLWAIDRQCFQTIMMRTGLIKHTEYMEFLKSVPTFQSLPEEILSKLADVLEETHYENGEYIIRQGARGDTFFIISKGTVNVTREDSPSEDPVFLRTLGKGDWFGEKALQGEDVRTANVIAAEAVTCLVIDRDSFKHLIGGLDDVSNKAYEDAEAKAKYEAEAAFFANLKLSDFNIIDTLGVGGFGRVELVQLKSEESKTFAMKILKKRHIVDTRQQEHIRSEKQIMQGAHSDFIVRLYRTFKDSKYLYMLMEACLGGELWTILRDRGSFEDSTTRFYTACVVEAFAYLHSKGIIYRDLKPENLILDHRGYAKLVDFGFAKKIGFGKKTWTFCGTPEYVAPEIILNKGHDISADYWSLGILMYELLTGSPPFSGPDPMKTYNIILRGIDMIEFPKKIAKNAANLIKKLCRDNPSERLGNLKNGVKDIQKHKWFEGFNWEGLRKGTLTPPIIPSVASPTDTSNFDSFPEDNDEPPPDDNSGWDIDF
Description: A PKG-Iα activity assay was carried out using HLMVEC. Recombinant human PKG-Iα18 was exposed to the peroxynitrite generator, SIN-1 (200 μM, 10 min) with increasing concentrations of the shielding peptide (0-10 μg).

HLMVEC = experiment: Total protein nitration (3-NT/β-actin) in LPS-treated HLMVEC; assay type: cell-based, human; details: peptide 100 ng/ml 30 min, then LPS 1 EU/ml
Description: Cell extracts were separated on 4-20% gels and electrophoretically transferred to PVDF membrane (Bio-Rad), then blocked with 5% nonfat dry milk in Tris-buffered saline. The membranes were probed with antibodies to RhoA (Cell Signaling), eNOS (BD), iNOS (Cell Signaling), or 3-Nitrotyrosine (Calbiochem). Reactive bands were visualized using chemi-luminescence (Pierce) on a Kodak 440CF image station. Band intensity was quantified using Kodak 1D image processing software. Protein loading was normalized by re-probing with mouse anti-β-actin.

RhoA [2] = target: T2, RhoA (Mus musculus, UniProt Q9QUI0); experiment: RhoA activity, nitration and protein in lungs of LPS treated mice; assay type: in vivo
T2 construct: from tissue; host or cells: mouse lung (male C57Bl/6)
Description: The Committee on Animal Research at Georgia Regents University approved all animal protocols and procedures. Stock solutions of Escherichia coli LPS (0111:B4) were prepared in saline. […] Mice were examined 24 h after LPS treatment. At the end of the treatment lungs were flushed with 3 ml of ice-cold PBS (5 mM EDTA), excised, dipped in saline and blotted dry. A portion of the lung was quickly snap-frozen in liquid nitrogen, crushed to powder in a pre-chilled mortar and stored at -80° C. The remaining lung tissue was stored at -80° C. […] After 24 h, mice were sacrificed and lung tissue was obtained to determine RhoA activity and RhoA nitration, LPS induced RhoA activation in the mouse lung as in HLMVEC (FIG. 7A). […] Total RhoA protein levels and basal RhoA nitration were measured. […] Likewise, basal RhoA nitration levels (FIG. 7D) were unchanged.

RhoA [3] = target: T3, RhoA (Homo sapiens, UniProt P61586); experiment: Biotin pull down assay of peptide binding to RhoA; set-up: polyHis (6His); made in house; host or cells: Escherichia coli BL21; details: peptide 100 ng/ml, recombinant human RhoA 0.1 mg
Description: To evaluate the ability of each peptide to bind to RhoA each peptide (100 ng/ml) was mixed with recombinant human RhoA (0.1 mg) for the biotin pull down assay.

RhoA [4] = target: T3, RhoA; experiment: RhoA activity, Rhotekin RBD pull-down, in LPS-treated HLMVEC; assay type: cell-based; set-up: endogenous in cells; host or cells: HLMVEC (human lung microvascular endothelial cells); details: MnTMPyP 25 μM 30 min pre-treatment, LPS 1 EU/ml 4 h
Description: RhoA activity levels were measured using the Rhotekin Rho Binding Domain (RBD) pull-down assay. Briefly, 2×10^6 cells were seeded in 10 cm dishes and incubated overnight in DMEM with 10% FBS and 5% antibiotics. The cells were then pretreated with the peroxynitrite scavenger, MynTMPyp (25 μM), for 30 min. The cells were treated with LPS (1 EU/ml) for 4 h. The level of active RhoA pulled down by the assay was measured by Western blot analysis (see above).

RhoA [5] = target: T3, RhoA; experiment: RhoA nitration, immunoprecipitation and 3-NT blot, in LPS-treated HLMVEC; assay type: cell-based; set-up: endogenous in cells; host or cells: HLMVEC (human lung microvascular endothelial cells); details: MnTMPyP, LPS 1 EU/ml 4 h
Description: HLMVEC were lysed and centrifuged at 6,000×g and the supernatant collected as previously described (Sud, N., et al., Am. J. Physiol. Lung Cell Mol. Physiol. 293, L1444-1453 (2007); Sharma, S., et al., Am. J. Physiol. Lung Cell Mol. Physiol. 294, L46-56 (2008)). Cell extracts were separated on 4-20% gels and electrophoretically transferred to PVDF membrane (Bio-Rad), then blocked with 5% nonfat dry milk in Tris-buffered saline. The membranes were probed with antibodies to RhoA (Cell Signaling), eNOS (BD), iNOS (Cell Signaling), or 3-Nitrotyrosine (Calbiochem). Reactive bands were visualized using chemi-luminescence (Pierce) on a Kodak 440CF image station. Band intensity was quantified using Kodak 1D image processing software. Protein loading was normalized by re-probing with mouse anti-β-actin.
HLMVEC were homogenized in IP buffer (25 mM Hepes, pH 7.5, 150 mM NaCl, 1% NP-40, 10 mM MgCl2, 1 mM EDTA, 2% glycerol supplemented with protease inhibitors). To precipitate the bound protein, 10 μl of a protein A/G agarose suspension (EMD/Calbiochem) was added for 2 h at 4° C. The samples were then centrifuged at 14,000 rpm for 5 min, the supernatant removed, and the beads washed 3× with IP buffer. Twenty μl of 2× Laemmli buffer was added, the samples were boiled for 5 min, and analyzed as described above. Immunoprecipitation efficiency was normalized by re-probing with RhoA.

RhoA [6] = target: T3, RhoA; experiment: Stopped-flow kinetic analysis of mant-GDP/mant-GTP binding to RhoA; set-up: polyHis (6His); made in house; host or cells: Escherichia coli BL21; Binding constant of GDP to RhoA / GTP binding constant of RhoA: unit not given here; details: stop-flow, RhoA with or without peroxynitrite (100 μM, 30 min); for Binding constant of GDP to RhoA: mant-GDP; for GTP binding constant of RhoA: mant-GTP
Description: RhoA was treated with authentic peroxynitrite (500 μM, 30 min) to induce tyrosine nitration in buffered solution. For kinetic analyses, 2 μM of either mart-GTP or -GDP was mixed with RhoA (0.1 μM) in a stopped-flow instrument (SX-20, […]). Increases in fluorescent intensity mant-nucleotide binding to RhoA were then measured using excitation 350 nm and cutoff filter 395 nm for 0.2-1 second. Acquired kinetic curves for 3-5 experiments were averaged and fitted using the Pro-kineticist software to determine observed binding constants.
To test the validity of the MD data kinetic studies were performed. His-tagged human RhoA construct was expressed in the Escherichia con BL21 strain. First, the bacterial lysate was purified by 6His-tag affinity on a Ni-NTA column. Second, the proteins in the elution fraction from the affinity purification were separated by size-exclusion chromatography (FIG. 11). The fraction containing RhoA was identified both by Coomassie blue staining and Western blot analysis. The recombinant purified RhoA was subjected to rapid flow kinetics to evaluate GDP and GTP binding using fluorescently labeled guanine nucleotides. Peroxynitrite decreases GDP binding to purified RhoA. Human recombinant RhoA was exposed to authentic peroxynitrite (100 μM, 30 min) on ice. The kinetics of binding fluorescently labeled GDP (FIG. 12A) or GTP (FIG. 12B) to RhoA was then performed using stop-flow analysis. Three measurements were averaged and fitted with bimolecular reaction equation. […] However, nitration of RhoA had no effect on the GTP binding constant ([…]).

T3 sequence (P61586 whole entry): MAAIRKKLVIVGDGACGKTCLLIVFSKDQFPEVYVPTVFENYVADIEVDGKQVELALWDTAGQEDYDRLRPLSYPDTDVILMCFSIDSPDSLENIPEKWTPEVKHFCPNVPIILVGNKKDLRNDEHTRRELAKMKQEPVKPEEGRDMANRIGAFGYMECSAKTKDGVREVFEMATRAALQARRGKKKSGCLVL
T2 sequence (Q9QUI0 whole entry): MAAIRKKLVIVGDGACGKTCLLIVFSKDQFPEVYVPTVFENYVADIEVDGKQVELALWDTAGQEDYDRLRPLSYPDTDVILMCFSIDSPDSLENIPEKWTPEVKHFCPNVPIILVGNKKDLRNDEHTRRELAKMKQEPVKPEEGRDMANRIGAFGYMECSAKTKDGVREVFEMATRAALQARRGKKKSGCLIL

## CCSC(=N)N [ETU]
[1]
  Attenuation of LPS-mediated decrease in transendothelial resistance (TER) / barrier disruption: attenuated

## GALRQKNVK(X)-amide (SEQ ID NO:29), where X is 3-carboxy-2,2,5,5-tetramethyl-3-pyrrolin-1-yloxy (nitroxide) (GALRQKNVK(X1)-NH2; N-terminus assumed; SMILES CC(C)C[C@H](NC(=O)[C@H](C)NC(=O)CN)C(=O)N[C@@H](CCCNC(=N)N)C(=O)N[C@@H](CCC(N)=O)C(=O)N[C@@H](CCCCN)C(=O)N[C@@H](CC(N)=O)C(=O)N[C@H](C(=O)N[C@@H](CCCCNC(=O)C1=CC(C)(C)N([O])C1(C)C)C(N)=O)C(C)C; listed as Homo sapiens) [shielding peptide]
[1]; in vitro, LPS challenge
  Barrier function when challenged with LPS: preserved
Recombinant human PKG-Iα; SIN-1 200 μM, 10 min, shielding peptide 0-10 μg
  PKG-Iα activity against peroxynitrite: preserves; also recorded: dose-dependently preserved
Recombinant human PKG-Iα; in vitro
  Physiologic PKG-Iα activity: did not alter

## HRKKRRQRRRQFPVFVPTVF (SEQ ID NO:35) (listed as Homo sapiens) [NipR1F, control peptide in which Y34 was substituted with a phenylalanine residue]
HLMVEC
  Increase in total protein nitration induced by LPS: unaffected
RhoA [2]; peptide alone, no LPS
  Basal RhoA nitration levels in mouse lung: unchanged
RhoA [2]; peptide i.p. 0.1 mg/kg, with or without LPS
  Total RhoA protein levels in mouse lung: Neither peptide nor LPS treatment altered
RhoA [3]
  Interaction between RhoA and biotinylated peptide: strong interaction

## MnTMPyP
[1]
  Attenuation of LPS-mediated decrease in transendothelial resistance (TER) / barrier disruption: significantly attenuated
RhoA [4]
  Attenuation of LPS-induced increase in RhoA activity: attenuated
RhoA [5]
  Attenuation of LPS-induced RhoA nitration: attenuated

## RhoA+ONOO: human recombinant RhoA exposed to authentic peroxynitrite (nitrated)
RhoA [6]
  Binding constant of GDP to RhoA: 4.03
  GTP binding constant of RhoA: 36.2

## RhoA: His-tagged human recombinant purified RhoA
RhoA [6]
  Binding constant of GDP to RhoA: 19.8
  GTP binding constant of RhoA: 38.7
